According to patent US11542515B2, “Methods and compositions for increasing efficiency of targeted gene modification using oligonucleotide-mediated gene repair” (CIBUS US LLC, priority 2016, dated 2023):
d = 2'-deoxy (DNA); m = 2'-O-methyl

Tested on: EPSPS 2-25 gene
Assay: EPSPS precise edits by Cas9 RNP plus GRON in leaf protoplasts (deep sequencing)
Assay type: cell-based, Brassica napus
Conditions: with Cas9 protein complexed with BnEPSPS gRNA-1, three weeks, three independent experiments
Experimental: Brassica napus protoplasts derived from leaves of in vitro propagated nodal cuttings were seeded in a 50 ml centrifuge tube at 2,000,000 cells per tube and at a cell density of 5×10^6 cells/ml. CRISPR-Cas9 targeting the EPSPS 2-25 gene along with GRON was delivered as a ribonucleoprotein complex using the PEG method or by alternative delivery methods such as by electroporation, cell-penetrating peptides and/or lipid based delivery techniques. Protoplasts were incubated in the dark at 25° C. for three weeks, and then analyzed deep sequencing in order to determine the percentage of precise EPSPS edits and frequency of indels within a given treatment.
The CRISPR-Cas9 consists of two components: the Streptococcus pyogenes Cas9 (SpCas9) and sgRNA which form the RNP CRISPR-Cas9 complex when mixed. The sgRNA is a fusion of CRISPR RNA (crRNA) and trans-activating crRNA (tracrRNA). The crRNA region contains the spacer sequence used to guide the Cas9 nuclease to the EPSPS target gene. In these experiments RNP CRISPR-Cas9 is used to target the EPSPS 2-25 gene. The GRON contains the coding sequence of the EPSPS gene near the site of conversion as well as nucleotide alterations to produce the desired changes to the EPSPS gene.

B1: 2′OMe; BnEPSPS-2-25/NC 101-mer: 101-mer 2OMe GRON targeting Brassica napus EPSPS 2-25, SEQ ID NO: 336 (nucleic acid)
chain: UTACCTTGCGTTGCCACCTGCAGCAGTAACTGCAGCGGTAAGTGTACGCATCGCTATTCCAGCATTCCCAAGGTACAACTCGATATCACTCTTGGAATCTA
modifications: sugars from the 5' end m1 d100, backbone and methylation of C not given here
- gene editing in the targeted epsps gene(s): 0.07-0.125%
